Experimental data reported in US20090181018A1 (Eli Lilly, published 2009).

How the values were obtained:
human des-acyl ghrelin = target: T1, human des-acyl ghrelin (human); experiment: SPR (BIAcore 2000), Mab amine-coupled to CM5 chip, des-acyl ghrelin as analyte, about 25 C
T1 construct: also called unacylated human ghrelin
Method: (§1) Except where noted, all reagents and materials are purchased from BIAcore® AB (Uppsala, Sweden). All measurements are performed at about 25° C. All samples containing human ghrelin (full length, C-8 acylated or des-acyl) and anti-ghrelin Mabs are diluted in HBS-EP buffer (150 mM sodium chloride, 3 mM EDTA, 0.005% (w/v) surfactant P-20, and 10 mM HEPES, pH 7.4). For all of the Mabs, the antibody is directly coupled to a CM5 chip using the amine-coupling chemistry described below, aiming for a surface density of between 800-1000 response units (RU). Flow cells (1-4) are activated for 7 minutes with a 1:1 mixture of 0.1 M N-hydroxysuccinimide and 0.1 M 3-(N,N-dimethylamino)propyl-N-ethylcarbodiimide at a flow rate of 10 μl/min. The Mab is diluted to 10 μg/mL in 10 mM sodium acetate, pH 4.5, and manually injected over all four flow cells at a flow rate of 10 μl/min. The surface density is monitored, and additional capture antibody is injected as needed to each individual cell until all flow cells reach a surface density of 800-1000 RU. Surfaces are blocked with a seven minute injection of 1 M ethanolamine-HCl, pH 8.5(10 μl/min). To ensure complete removal of any noncovalently bound capture antibody, 15 μl of 10 mM glycine, pH 1.5, are injected twice. Running buffer for kinetic experiments is HBS-EP buffer (150 mM sodium chloride, 3 mM EDTA, 0.005% (w/v) surfactant P-20, and 10 mM HEPES, pH 7.4).
(§2) Collection of kinetic binding data is performed at maximum flow rate (100 μl/min) and a low surface density to minimize mass transport effects. Each analysis cycle consists of: (i) 200 μl injection (2 min.) of ghrelin (concentration range of 50 nM to 0.39 nM in 2-fold dilution increments) over all four flow cells with flow cell 1 as the reference flow cell; (ii) 20 min. dissociation (buffer only flow); (iii) regeneration of chip surface with a 15 sec injection of 10 mM glycine, pH 1.5; and (iv) a 2 min. stabilization time before the start of the next cycle. The signal is monitored as flow cell 2 minus flow cell 1, flow cell 3 minus flow cell 1, and flow cell 4 minus flow cell 1. Samples and a buffer blank are injected in duplicate in a random order. Data are processed using BIAevaluation v.4.1 software and data are fit to a 1:1 binding model in either BIAevaluation v.4.1 or CLAMP global analysis software.

[1] = target: T2, C-8 acylated human ghrelin (1-28) (human, n-octanoyl (C8) group on Ser3); experiment: cell-based or functional assay
T2 sequence (peptide, as listed by the source): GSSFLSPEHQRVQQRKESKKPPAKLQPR

[2] = target: T2, C-8 acylated human ghrelin (1-28); experiment: SPR (BIAcore 2000), Fab captured by goat anti-human kappa, ghrelin as analyte, about 25 C
Method: The affinity (KD) of humanized/optimized anti-ghrelin Fabs disclosed in Example 1 for C-8 acylated human ghrelin (1-28) is measured using a BIAcore™ 2000 instrument containing a CM5 sensor chip. Except where noted, all reagents and materials are purchased from BIAcore™ AB (Uppsala, Sweden). Measurements are performed at about 25° C. Samples containing human ghrelin are dissolved in HBS-EP buffer (150 mM sodium chloride, 3 mM EDTA, 0.005% (w/v) surfactant P-20, and 10 mM HEPES, pH 7.4). A capture antibody, goat anti-mouse Kappa (Southern Biotechnology, Inc.) for the D4 and D4 7.1 Fabs, and goat anti-human kappa (Jackson ImmunoResearch) for all other Fabs, hereafter termed “capture antibody,” is immobilized onto flow cells using amine-coupling chemistry. Flow cells (1-4) are activated for 7 minutes with a 1:1 mixture of 0.1 M N-hydroxysuccinimide and 0.1 M 3-(N,N-dimethylamino)propyl-N-ethylcarbodiimide at a flow rate of 10 μl/min. Goat anti-mouse Kappa or goat anti-human kappa (30 μg/mL in 10 mM sodium acetate, pH 4.5) is manually injected over all 4 flow cells at a flow rate of 10 μl/min. The surface density is monitored and additional capture antibody is injected if needed to individual cells until all flow cells reach a surface density of 4500-5000 response units (RU). Surfaces are blocked with a 7 minute injection of 1 M ethanolamine-HCl, pH 8.5 (10 μl/min). To ensure complete removal of any noncovalently bound capture antibody, 15 μl of 10 mM glycine, pH 1.5, is injected twice. Running buffer used for kinetic experiments contains 10 mM HEPES, pH 7.4, 150 mM NaCl, 0.005% P20.
Collection of kinetic binding data is performed at maximum flow rate (100 μl/min) and a low surface density to minimize mass transport effects. Each analysis cycle consists of: (i) capture of 300-350 RU of Fabs (BioSite) by injection of 5-10 μl of 5 μg/ml solution over flow cell 2, 3 and 4 for different Fabs at a flow rate of 10 μl/min., (ii) 200 μl injection (2 min.) of human ghrelin (concentration range of 50 nM to 0.39 nM in 2-fold dilution increments) over all 4 flow cells with flow cell 1 as the reference flow cell, (iii) 20 min. dissociation (buffer flow), (iv) regeneration of capture antibody surface with a 15 seq injection of 10 mM glycine, pH 1.5, (v) a 30 sec blank injection of running buffer, and (vi) a 2 min. stabilization time before the start of the next cycle.

[3] = target: T2, C-8 acylated human ghrelin (1-28); experiment: SPR (BIAcore 2000), half-life of the complex
Method: The affinity (KD) of humanized/optimized anti-ghrelin Fabs disclosed in Example 1 for C-8 acylated human ghrelin (1-28) is measured using a BIAcore™ 2000 instrument containing a CM5 sensor chip. Except where noted, all reagents and materials are purchased from BIAcore™ AB (Uppsala, Sweden). Measurements are performed at about 25° C. Samples containing human ghrelin are dissolved in HBS-EP buffer (150 mM sodium chloride, 3 mM EDTA, 0.005% (w/v) surfactant P-20, and 10 mM HEPES, pH 7.4). A capture antibody, goat anti-mouse Kappa (Southern Biotechnology, Inc.) for the D4 and D4 7.1 Fabs, and goat anti-human kappa (Jackson ImmunoResearch) for all other Fabs, hereafter termed “capture antibody,” is immobilized onto flow cells using amine-coupling chemistry. Flow cells (1-4) are activated for 7 minutes with a 1:1 mixture of 0.1 M N-hydroxysuccinimide and 0.1 M 3-(N,N-dimethylamino)propyl-N-ethylcarbodiimide at a flow rate of 10 μl/min. Goat anti-mouse Kappa or goat anti-human kappa (30 μg/mL in 10 mM sodium acetate, pH 4.5) is manually injected over all 4 flow cells at a flow rate of 10 μl/min. The surface density is monitored and additional capture antibody is injected if needed to individual cells until all flow cells reach a surface density of 4500-5000 response units (RU). Surfaces are blocked with a 7 minute injection of 1 M ethanolamine-HCl, pH 8.5 (10 μl/min). […]

[4] = target: T2, C-8 acylated human ghrelin (1-28); experiment: SPR (BIAcore 2000), Mab amine-coupled to CM5 chip, ghrelin as analyte, about 25 C
Method: as §1, §2

[5] = target: T2, C-8 acylated human ghrelin (1-28); experiment: SPR (BIAcore 2000), half-life of the complex calculated from koff
Method: as §1, with “Surfaces are blocked with a seven minute injection of 1 M ethanolamine-HCl, pH 8.5(10 μl/min). To ensure complete removal of any noncovalently bound capture antibody, 15 μl of 10 mM glycine, pH 1.5, are injected twice. Running buffer for kinetic experiments is HBS-EP buffer (150 mM sodium chloride, 3 mM EDTA, 0.005% (w/v) surfactant P-20, and 10 mM HEPES, pH 7.4).” left out
Collection of kinetic binding data is performed at maximum flow rate (100 μl/min) and a low surface density to minimize mass transport effects. […] The signal is monitored as flow cell 2 minus flow cell 1, flow cell 3 minus flow cell 1, and flow cell 4 minus flow cell 1. […]

B1: Mab D52N (antibody, rat IgG1, V domains shown)
VH: QVQLVQSGAEVKKPGASVKVSCKVSGYTFTSTWMHWVRQAPGKGLEWMGYINPSTGYTEYTQKFKDRVTMTEDTSTDTAYMELSSLRSEDTAVYYCATDGYDEDYWGQGTTVTVSS
VL: DIVMTQSPLSLPVTPGEPASISCRSSDSLGHSSGHTYLSWYLQKPGQSPGLLIYKVSNRFDGVPDRFSGSGSGTDFTLKISRVEAEDVGVYYCSQSTLVPWTFGQGTKLEIKD
Q: How did the Kd (human des-acyl ghrelin) turn out when B1 was run?
A: 1.05 nM

Q: What about the koff (human des-acyl ghrelin) of the same binder?
A: 0.0343 s⁻¹

Q: And the kon (human des-acyl ghrelin)?
A: 3.26e+07 M⁻¹ s⁻¹

B2: Mab D27Q (antibody, rat IgG1, V domains shown)
VH: QVQLVQSGAEVKKPGASVKVSCKVSGYTFTSTWMHWVRQAPGKGLEWMGYIDPSTGYTEYTQKFKDRVTMTEDTSTDTAYMELSSLRSEDTAVYYCATDGYDEDYWGQGTTVTVSS
VL: DIVMTQSPLSLPVTPGEPASISCRSSQSLGHSSGHTYLSWYLQKPGQSPGLLIYKVSNRFDGVPDRFSGSGSGTDFTLKISRVEAEDVGVYYCSQSTLVPWTFGQGTKLEIKD
Q: For B2, which Kd (human des-acyl ghrelin) is on record?
A: 0.176 nM

Q: And the “IC50, in vitro FLIPR calcium assay (intracellular calcium in AV12 cells expressing GHS-R1a)” value [1]?
A: 1.12 nM

B3: Fab S28D (Fab, V domains shown)
VH: QVQLVQSGAEVKKPGASVKVSCKVSGYTFTSTWMHWVRQAPGKGLEWMGYIDPSTGYTEYTQKFKDRVTMTEDTSTDTAYMELSSLRSEDTAVYYCATDGYDEDYWGQGTTVTVSS
VL: DIVMTQSPLSLPVTPGEPASISCRSSDSLGHSDGNTYLSWYLQKPGQSPGLLIYKVSNRFDGVPDRFSGSGSGTDFTLKISRVEAEDVGVYYCSQSTLVPWTFGQGTKLEIK
notes: The Fab was captured by goat anti-human kappa
Q: With B3 as the binder, how does the kon [2] read?
A: 3e+07 M⁻¹ s⁻¹

B4: Fab A2 (Fab, V domains shown)
VH: QVQLVQSGAEVKKPGASVKVSCKVSGYTFTSTWMHWVRQAPGKGLEWMGYIDPSTGYTEYTQKFKDRVTMTEDTSTDTAYMELSSLRSEDTAVYYCATDGYDFDYWGQGTTVTVSS
VL: DIVMTQSPLSLPVTPGEPASISCRSSDSLGHSTGFTYLSWYLQKPGQSPGLLIYKVSNRFDGVPDRFSGSGSGTDFTLKISRVEAEDVGVYYCSQSTLVPWTFGQGTKLEIK
notes: The Fab was captured by goat anti-human kappa, so it has a human kappa light chain
Q: For B4, which Kd [2] is on record?
A: 0.043 nM

Q: What about the koff [2] of the same binder?
A: 0.00027 s⁻¹

Q: What about the kon [2] of the same binder?
A: 6.34e+06 M⁻¹ s⁻¹

Q: What about the t1/2 [3] of the same binder?
A: 43 min

B5: Fab T32Y (Fab, V domains shown)
VH: QVQLVQSGAEVKKPGASVKVSCKVSGYTFTSYWMHWVRQAPGKGLEWMGYIDPSTGYTEYTQKFKDRVTMTEDTSTDTAYMELSSLRSEDTAVYYCATDGYDEDYWGQGTTVTVSS
VL: DIVMTQSPLSLPVTPGEPASISCRSSDSLGHSSGHTYLSWYLQKPGQSPGLLIYKVSNRFDGVPDRFSGSGSGTDFTLKISRVEAEDVGVYYCSQSTLVPWTFGQGTKLEIK
notes: as for B3
Q: B5 was tested. Which Kd [2] did it give?
A: 1 nM

Q: What about the koff [2] of the same binder?
A: 0.00875 s⁻¹

Q: And the t1/2 [3]?
A: 1 min

B6: Mab A4 (antibody, V domains shown)
VH: QVQLVQSGAEVKKPGASVKVSCKVSGYTFTSTWMHWVRQAPGKGLEWMGYIDPSTGYTEYTQKFKDRVTMTEDTSTDTAYMELSSLRSEDTAVYYCATDGYDFDYWGQGTTVTVSS
VL: DIVMTQSPLSLPVTPGEPASISCRSSDSLGHSTGFTYLSWYLQKPGQSPGLLIYKVSNRFDGVPDRFSGSGSGTDFTLKISRVEAEDVGVYYCSQSTLVPWTFGQGTKLEIKD
Q: How did the Kd [4] turn out when B6 was run?
A: 0.074 nM

Q: What about the kon [4] of the same binder?
A: 4.44e+06 M⁻¹ s⁻¹

Q: And the kon (human des-acyl ghrelin)?
A: 4.56e+06 M⁻¹ s⁻¹

B7: Mab A5 (antibody, rat IgG1, V domains shown)
VH: QVQLVQSGAEVKKPGASVKVSCKVSGYTFTSTWMHWVRQAPGKGLEWMGYIDPSTGYTEYTQKFKDRVTMTEDTSTDTAYMELSSLRSEDTAVYYCATDGYDYDYWGQGTTVTVSS
VL: DIVMTQSPLSLPVTPGEPASISCRSSDHLGHSTGYTYLSWYLQKPGQSPGLLIYKVSNRFDGVPDRFSGSGSGTDFTLKISRVEAEDVGVYYCSQSTLVPWTFGQGTKLEIKD
Q: What does the source list for B7?
A: t1/2 [5]: 201 min; koff [4]: 5.74e-05 s⁻¹; koff (human des-acyl ghrelin): 6.67e-05 s⁻¹

B8: Mab S34H (antibody, rat IgG1, V domains shown)
VH: QVQLVQSGAEVKKPGASVKVSCKVSGYTFTSTWMHWVRQAPGKGLEWMGYIDPSTGYTEYTQKFKDRVTMTEDTSTDTAYMELSSLRSEDTAVYYCATDGYDEDYWGQGTTVTVSS
VL: DIVMTQSPLSLPVTPGEPASISCRSSDSLGHSSGHTYLHWYLQKPGQSPGLLIYKVSNRFDGVPDRFSGSGSGTDFTLKISRVEAEDVGVYYCSQSTLVPWTFGQGTKLEIKD
Q: How did the t1/2 [5] turn out when B8 was run?
A: 1 min

Q: And the Kd [4]?
A: 0.4 nM

Q: What about the koff [4] of the same binder?
A: 0.0169 s⁻¹

Q: And the kon [4]?
A: 4.24e+07 M⁻¹ s⁻¹
